In PMC3877406, “Characterization of VCAM-1-Binding Peptide-Functionalized Quantum Dots for Molecular Imaging of Inflamed Endothelium” (PLoS ONE, 2013):
Side chains are listed from the residue outwards. Ends that are not written are not given here. amino‑PEG‑coated CdSeTe/ZnS quantum dot = amino-PEG-coated CdSeTe/ZnS quantum dot; sulfo‑SMCC = sulfosuccinimidyl-4-(N-maleimidomethyl)cyclohexane-1-carboxylate

Biological target: T1, recombinant human VCAM-1 (human, UniProt P19320 25-698)
T1 construct: vascular cell adhesion molecule 1 (VCAM-1), human, recombinant; A bought recombinant VCAM-1 is likely the soluble extracellular part, perhaps with a tag or Fc; also called recombinant VCAM-1; vascular cell adhesion molecule 1; source: bought: R&D Systems
T1 sequence (looked up): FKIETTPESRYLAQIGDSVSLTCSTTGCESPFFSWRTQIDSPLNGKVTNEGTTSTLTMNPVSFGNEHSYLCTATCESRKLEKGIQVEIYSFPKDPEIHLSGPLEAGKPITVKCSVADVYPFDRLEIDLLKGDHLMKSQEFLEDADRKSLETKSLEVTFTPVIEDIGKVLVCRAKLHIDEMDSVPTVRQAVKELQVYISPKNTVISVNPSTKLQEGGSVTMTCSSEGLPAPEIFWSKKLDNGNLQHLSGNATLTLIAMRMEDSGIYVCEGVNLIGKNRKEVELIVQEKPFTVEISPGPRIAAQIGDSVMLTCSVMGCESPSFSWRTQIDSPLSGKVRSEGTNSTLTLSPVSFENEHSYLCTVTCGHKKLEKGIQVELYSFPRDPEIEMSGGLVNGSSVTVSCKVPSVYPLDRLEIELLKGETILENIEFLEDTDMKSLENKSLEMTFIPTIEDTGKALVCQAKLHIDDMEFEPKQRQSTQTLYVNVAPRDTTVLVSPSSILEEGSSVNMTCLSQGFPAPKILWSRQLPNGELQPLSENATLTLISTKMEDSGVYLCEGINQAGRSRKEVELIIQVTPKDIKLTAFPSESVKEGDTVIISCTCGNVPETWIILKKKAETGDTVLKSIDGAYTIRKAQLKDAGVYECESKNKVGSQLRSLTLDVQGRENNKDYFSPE
Assay: blue-shift of the quantum dot fluorescence peak (spectra by confocal microscope); VQDs mixed with recombinant human VCAM-1 in tube in 10:1 and 1:1 molar ratios, 5 hours at room temperature; a drop dried on a slide; excitation 405 nm; blue-shift seen at 1:1, not at 10:1
Conditions: both partners purified

- binding result: binds
B1: VCAM-1 binding peptide functionalized QDs (VQDs) (peptide)
peptide: VHPKQHRGGSKGC([sulfo‑SMCC-amino‑PEG‑coated CdSeTe/ZnS quantum dot])
notes: source: synthetic peptide (Innovagen, Sweden), conjugated to Qdot 705 ITK Amino (PEG) Quantum Dots (Invitrogen) with sulfo-SMCC
